# Laboratory results taken from patent WO1997049805A2 (dated 1997).
# Target: hen egg-white lysozyme (hen, UniProt P00698 19-147)
# Experiment: method not stated
binder,measurement,value
cAb-Lys3 (VHH) VHH: DVQLQASGGGSVQAGGSLRLSCAASGYTIGPYCMGWFRQAPGKEREGVAAINMGGGITYYADSVKGRFTISQDNAKNTVYLLMNSLEPEDTAIYYCAADSTIYASYYECGHGLSTGGYGYDSWGQGTQVTVSS,Ka,2e+07 M⁻¹
